Results taken from paper PMC8695382 (Nature, 2021).

Key:
Assay in all cases: cryo-EM structure; yeast replisome–SCF^Dia2 complexes assembled in the absence of DNA (off DNA); 3.9 Å
Settings in all cases: both partners purified
Mcm3 = biological target: T1, Mcm3 (Saccharomyces cerevisiae, UniProt P24279 1-971)
T1 construct: Mcm3, S. cerevisiae; Subunit of m2; source: purified as part of CMG

Mcm5 = biological target: T2, Mcm5 (Saccharomyces cerevisiae, UniProt P29496 1-775)
T2 construct: Mcm5, S. cerevisiae; Subunit of m2; source: purified as part of CMG
T2 sequence: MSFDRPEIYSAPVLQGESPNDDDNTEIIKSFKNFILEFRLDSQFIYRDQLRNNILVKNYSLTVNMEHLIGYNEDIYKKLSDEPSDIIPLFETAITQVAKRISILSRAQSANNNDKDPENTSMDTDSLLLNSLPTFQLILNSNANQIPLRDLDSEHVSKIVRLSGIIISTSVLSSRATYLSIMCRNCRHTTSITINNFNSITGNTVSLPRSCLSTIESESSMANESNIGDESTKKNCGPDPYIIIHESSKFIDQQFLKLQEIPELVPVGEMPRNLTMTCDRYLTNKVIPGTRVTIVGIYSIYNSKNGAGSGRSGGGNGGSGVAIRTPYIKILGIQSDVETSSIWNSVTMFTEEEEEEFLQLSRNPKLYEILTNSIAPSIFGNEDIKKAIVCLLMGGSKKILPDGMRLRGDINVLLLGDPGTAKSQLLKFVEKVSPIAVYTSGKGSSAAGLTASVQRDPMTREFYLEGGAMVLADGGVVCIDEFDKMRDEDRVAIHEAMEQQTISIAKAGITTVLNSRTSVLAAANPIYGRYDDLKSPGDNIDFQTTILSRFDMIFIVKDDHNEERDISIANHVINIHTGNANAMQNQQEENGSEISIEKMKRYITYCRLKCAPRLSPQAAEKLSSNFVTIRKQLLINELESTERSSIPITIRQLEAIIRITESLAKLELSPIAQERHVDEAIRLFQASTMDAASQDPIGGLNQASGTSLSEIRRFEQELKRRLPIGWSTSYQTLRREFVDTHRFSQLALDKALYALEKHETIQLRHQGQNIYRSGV

Mcm7 = biological target: T3, Mcm7 (Saccharomyces cerevisiae, UniProt P38132 1-845)
T3 construct: Mcm7, S. cerevisiae; Subunit of m2; source: purified as part of CMG
T3 sequence: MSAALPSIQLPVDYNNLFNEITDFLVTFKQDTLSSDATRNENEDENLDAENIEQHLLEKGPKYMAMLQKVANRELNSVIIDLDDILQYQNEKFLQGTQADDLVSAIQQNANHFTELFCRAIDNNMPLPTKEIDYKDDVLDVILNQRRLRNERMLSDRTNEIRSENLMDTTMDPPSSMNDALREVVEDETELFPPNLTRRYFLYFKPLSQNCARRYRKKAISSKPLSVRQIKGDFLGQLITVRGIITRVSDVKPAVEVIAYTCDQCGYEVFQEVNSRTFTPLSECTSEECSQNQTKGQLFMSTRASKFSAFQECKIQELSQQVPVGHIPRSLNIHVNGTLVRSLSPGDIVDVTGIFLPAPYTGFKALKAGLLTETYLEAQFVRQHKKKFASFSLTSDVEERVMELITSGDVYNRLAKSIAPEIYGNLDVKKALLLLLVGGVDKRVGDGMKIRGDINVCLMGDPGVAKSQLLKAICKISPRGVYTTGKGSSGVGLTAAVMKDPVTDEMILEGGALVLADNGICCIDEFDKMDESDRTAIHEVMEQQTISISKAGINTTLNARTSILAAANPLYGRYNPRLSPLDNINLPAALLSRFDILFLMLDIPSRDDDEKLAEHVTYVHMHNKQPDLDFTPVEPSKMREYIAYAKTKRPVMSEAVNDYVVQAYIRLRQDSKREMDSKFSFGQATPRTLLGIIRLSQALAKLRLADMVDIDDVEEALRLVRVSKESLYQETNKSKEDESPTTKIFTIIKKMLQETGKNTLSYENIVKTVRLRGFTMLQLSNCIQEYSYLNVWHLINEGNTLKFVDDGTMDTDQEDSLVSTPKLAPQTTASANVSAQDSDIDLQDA

Measured: binding result

T1 sequence (P24279 whole entry): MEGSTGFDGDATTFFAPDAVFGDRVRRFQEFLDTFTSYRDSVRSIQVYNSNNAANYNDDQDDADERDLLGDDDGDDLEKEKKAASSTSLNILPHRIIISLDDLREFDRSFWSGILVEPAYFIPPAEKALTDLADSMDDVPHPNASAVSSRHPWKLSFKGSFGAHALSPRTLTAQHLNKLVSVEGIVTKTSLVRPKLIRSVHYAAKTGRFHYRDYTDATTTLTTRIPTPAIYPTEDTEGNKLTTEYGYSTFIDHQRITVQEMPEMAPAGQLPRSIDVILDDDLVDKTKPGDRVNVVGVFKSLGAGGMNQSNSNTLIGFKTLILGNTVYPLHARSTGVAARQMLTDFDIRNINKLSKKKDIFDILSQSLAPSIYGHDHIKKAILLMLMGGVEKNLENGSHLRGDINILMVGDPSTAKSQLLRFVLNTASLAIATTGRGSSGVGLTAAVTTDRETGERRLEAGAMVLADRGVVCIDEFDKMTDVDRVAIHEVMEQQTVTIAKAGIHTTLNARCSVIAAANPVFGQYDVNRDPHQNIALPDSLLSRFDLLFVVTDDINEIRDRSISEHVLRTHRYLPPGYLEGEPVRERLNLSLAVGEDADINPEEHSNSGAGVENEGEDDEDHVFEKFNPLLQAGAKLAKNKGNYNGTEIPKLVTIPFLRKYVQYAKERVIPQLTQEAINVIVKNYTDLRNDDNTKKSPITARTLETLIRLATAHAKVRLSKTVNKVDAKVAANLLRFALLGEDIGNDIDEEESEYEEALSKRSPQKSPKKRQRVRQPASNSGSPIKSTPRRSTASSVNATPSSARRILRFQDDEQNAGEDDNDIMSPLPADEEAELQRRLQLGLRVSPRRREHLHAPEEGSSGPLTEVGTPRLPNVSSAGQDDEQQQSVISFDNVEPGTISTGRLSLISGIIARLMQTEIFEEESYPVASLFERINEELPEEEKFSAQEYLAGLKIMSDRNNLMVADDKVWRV

B1: Dia2 (natural protein, Saccharomyces cerevisiae)
chain: MSSPGNSGVAIDSTVLKAIELGTRLFKSGEYLQAKRIFTNALRVCDSYSQEQIMRIRNAYQLDTARPDNKRLYHPRYIKILDNICACYEKLNDLKSCLDVSQRLLKLEPGNIKCYIRCTRTLIKLKDWKRAYKTCSRGLQLCNNDSNHLRQQKQFIKNNMVQKQDGKRSYIDPLEETKIAKKKKNNNVLESLPKKKIKGSTKKTDLVGNLPIEILPIIFQRFTTKELVTLSLVCNKWRDKILYHLDCFQEFNLAPINFKNFVKFMDFLQQNFTRTYRKYILSQVKVSSRITSEELRITQLLFSKMPKCINIERLILSMPTLTTTQIFKLMVRGGTDFFTRLLELSLMITYRPDKQHELEILQTCPLLKKIELIFVNSLVPIFDGNNSVGRDGSFNVMARHTNMQISTADNDEQGIVEEKVIYSELEKITLICDKKKIKNFPLCRALLRGQFPLLQKLTITGVTFPMNNQDIMNFQWLLNFPDLKELWIEDNDNCELSKFLQLLKFSNVWKNLEKLTFRENKLYPIVNLDEDQPVTNDDEVPSMLFYKENLQNLEKLDLMGTSISGSALTRLCEQEYLDGRKLRSLNIGNCPNIQFPNNHAHTARMILDVNAVLKRLSKLEEINLSHLSSLNDSTMKSFIINVPFLENLKRLDISHNFEITGISIYEFLKKFQMDHDNEAGGQPLAYLNIDGCSQVSHITVNMIRAQNLVTQVDCVYERDVWRKFGINSYSYS
notes: Dia2, F-box protein, S. cerevisiae; model built for F-box (211–247), LRRs (248–716) and C-terminal tail (717–732); N-terminal TPR domain not visible; Subunit of m1 as it stands in the cryo-EM samples; also called Dia2^LRR (its leucine-rich repeat domain); source: purified as part of SCF^Dia2
binds: all assays above
